Consider 5 substances from US20240043504A1.

The target in assay [1] is full-length SARS-CoV-2 spike protein (amino acids M1-T1273 of accession number YP_009724390.1) on Ju (SARS-CoV-2) (UniProt P0DTC2). As to the kind of experiment: cell-based or functional assay.
Assay [2] deals with SARS-CoV-2 spike protein (S-wt, Wuhan-Hu-1, NCBI Accession Number MN908947.3) on VSV pseudoparticles (SARS-CoV-2) (UniProt P0DTC2). As to the kind of experiment: cell-based or functional assay.
The target of assay [3] is SARS-CoV-2 spike protein on VSV-SARS-CoV-2-S pseudovirus (SARS-CoV-2) (UniProt P0DTC2). Briefly: cell-based or functional assay.
In assay [4] the target is human FcγR3a 176Val allotype receptor (human) (UniProt P08637). Briefly: cell-based or functional assay.
The target of assay [5] is MOD10-SARS-CoV-2 Spike Protein (RBD)(R319-F541).mmH (SARS-CoV-2). Briefly: Luminex beads, supernatant.
Assay [6] addresses MOD11-SARS-CoV-2 Spike Protein (RBD)(R319-F541).mmH (SARS-CoV-2). As to the kind of experiment: Luminex beads, supernatant.
Assay [7] deals with MOD12-SARS-CoV-2 Spike Protein (RBD)(R319-F541).mmH (SARS-CoV-2). Briefly: Luminex beads, supernatant.
In assay [8] the target is MOD14-SARS-CoV-2 Spike Protein (RBD)(R319-F541).mmH (SARS-CoV-2). Briefly: Luminex beads, supernatant.
Assay [9] has as its target MOD15-SARS-CoV-2 Spike Protein (RBD)(R319-F541).mmH (SARS-CoV-2). Briefly: Luminex beads, supernatant.
Assay [10] deals with MOD2-SARS-CoV-2 Spike Protein (RBD)(R319-F541).mmH (SARS-CoV-2). Briefly: Luminex beads, supernatant.
For assay [11], the target named is MOD3-SARS-CoV-2 Spike Protein (RBD)(R319-F541).mmH (SARS-CoV-2). Briefly: Luminex beads, supernatant.
The target in assay [12] is MOD4-SARS-CoV-2 Spike Protein (RBD)(R319-F541).mmH (SARS-CoV-2). As to the kind of experiment: Luminex beads, supernatant.
Assay [13] deals with MOD5-SARS-CoV-2 Spike Protein (RBD)(R319-F541).mmH (SARS-CoV-2). As to the kind of experiment: Luminex beads, supernatant.
For assay [14], the target named is MOD6-SARS-CoV-2 Spike Protein (RBD)(R319-F541).mmH (SARS-CoV-2). As to the kind of experiment: Luminex beads, supernatant.
In assay [15] the target is MOD7-SARS-CoV-2 Spike Protein (RBD)(R319-F541).mmH (SARS-CoV-2). As to the kind of experiment: Luminex beads, supernatant.
For assay [16], the target named is MOD8-SARS-CoV-2 Spike Protein (RBD)(R319-F541).mmH (SARS-CoV-2). As to the kind of experiment: Luminex beads, supernatant.
The target of assay [17] is MOD9-SARS-CoV-2 Spike Protein (RBD)(R319-F541).mmH (SARS-CoV-2). As to the kind of experiment: Luminex beads, supernatant.
Assay [18] concerns the target Bt-MERS.hFc (mAb2664-L2) (MERS-CoV) (UniProt K9N5Q8). Briefly: Luminex bead binding, supernatant.
For assay [19], the target named is MERS.hFc (mAb2664-L1) (MERS-CoV) (UniProt K9N5Q8). As to the kind of experiment: Luminex bead binding, supernatant.
Assay [20] has as its target MERS.mFc (mAb2663-L1) (MERS-CoV) (UniProt K9N5Q8). Briefly: Luminex bead binding, supernatant.
In assay [21] the target is SARS-CoV-2 spike protein, Wuhan-Hu-1 sequence (S-wt), on VSV pseudoparticles (SARS-CoV-2) (UniProt P0DTC2). As to the kind of experiment: cell-based or functional assay.
In assay [22] the target is MOD1-SARS-CoV-2 Spike Protein (RBD)(R319-F541).mmH (SARS-CoV-2). Briefly: Luminex beads, supernatant.
Assay [23] addresses MOD13-SARS-CoV-2 Spike Protein (RBD)(R319-F541).mmH (SARS-CoV-2). As to the kind of experiment: Luminex beads, supernatant.

Chain of human FcγR3a 176Val allotype receptor (human) (P08637 17-254 F176V): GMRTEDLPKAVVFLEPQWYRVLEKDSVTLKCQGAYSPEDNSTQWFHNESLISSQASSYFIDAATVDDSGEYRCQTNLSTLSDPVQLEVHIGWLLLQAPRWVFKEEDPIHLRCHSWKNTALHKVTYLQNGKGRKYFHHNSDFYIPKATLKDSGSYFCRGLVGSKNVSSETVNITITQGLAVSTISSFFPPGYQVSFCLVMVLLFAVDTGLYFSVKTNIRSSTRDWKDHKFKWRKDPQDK

IgG1 Isotype Control (antibody) had an ADCP Max (% ADCP), Jurkat/hCD20/SARS-CoV-2 Spike cells in assay [1] of 10.4%.

mAb10989 (antibody) registered an IC50 (M), neutralization in [2] of 7.23e-12 M. In assay [3], this substance showed a Neutralization (1:4 dilution) of 100%. Besides, the Neutralization (1:20 dilution) in assay [3] came to 99.8%. Besides, the Neutralization (1:100 dilution) in assay [3] worked out at 98.2%. Also, the ADCC (Activity (%) (of positive control)) in assay [4] was determined as 21.5%. The same substance came in with an ADCC Mean RLU (surrogate reporter assay, spike-expressing target cells) in assay [4] of 10200 RLU. Further, the Binding signal (MFI) in [5] was determined as 15500 MFI; in assay [6], 16800 MFI; in assay [7] it was 15100 MFI; in assay [8] it was 18100 MFI; in assay [9], 15900 MFI; in assay [10], 16700 MFI. For the same substance, the Binding signal (MFI) in assay [11] is 18300 MFI; in [12], 15800 MFI; in assay [13], 3370 MFI; in assay [14], 19600 MFI; in [15] it was 15200 MFI; in assay [16], 6140 MFI. Moreover, the Binding signal (MFI) came to 17800 MFI in [17], 186 MFI in [18], 206 MFI in assay [19] and 161 MFI in assay [20].

Substance mAb10933 (antibody) registered a Neutralization (1:100 dilution) in assay [3] of 88.4%. In assay [4], this substance gave an ADCC (Activity (%) (of positive control)) of 68.5% and an ADCC Mean RLU (surrogate reporter assay, spike-expressing target cells) of 9740 RLU.

Regarding mAb10987 (antibody), the IC50 (M), neutralization in [2] came out at 4.06e-11 M. In addition, in assay [3], the Neutralization (1:4 dilution) was 99.3%, the Neutralization (1:20 dilution) worked out at 97.7% and the Neutralization (1:100 dilution) was 94.6%. The substance also had a Relative neutralization (5 µg/ml, Vero cells) in assay [21] of 100%. Moreover, in assay [4], the ADCC (Activity (%) (of positive control)) worked out at 29.4% and the ADCC Mean RLU (surrogate reporter assay, spike-expressing target cells) is 12000 RLU. Moreover, in assay [18], the Binding signal (MFI) worked out at 172 MFI. Moreover, the Binding signal (MFI) in assay [19] was 235 MFI. This substance also showed a Binding signal (MFI) in [20] of 196 MFI.

In turn, mAb10934 (antibody) displayed an ADCC Mean RLU (surrogate reporter assay, spike-expressing target cells) in [4] of 11700 RLU. The Binding signal (MFI) in assay [22] came to 81 MFI; in assay [5], 30400 MFI; in assay [6] it was 30700 MFI; in assay [7] it was 32900 MFI; in assay [23], 30500 MFI; in assay [8], 28600 MFI. The Binding signal (MFI) was found to be 27800 MFI in assay [9]; 27700 MFI in [10]; 25100 MFI in assay [11]; 31700 MFI in assay [12]; 6650 MFI in assay [13]; 30800 MFI in assay [14]. Besides, the Binding signal (MFI) in [15] amounted to 29900 MFI; in [16] it was 6410 MFI; in assay [17], 31300 MFI.
